Results reported in US20040043959A1, “Combination therapies for treating methylthioadenosine phosphorylase deficient cells” (priority 2002, published 2004).

Legend:
Assay in all cases: MTAP substrate assay, coupled spectrophotometric (adenine, xanthine oxidase)
Type in all cases: biochemical, human
Details in all cases: other: substrate of MTAP, 37° C.
[1] = substrate: Nc1ncnc2c1ncn2[C@@H]1O[C@H](CSCCO)[C@@H](O)[C@H]1O
Procedure: (§1) An enzymatic assay to determine the activity of MTAP against a given substrate was performed. Human MTAP containing an N-terminal six-histidine tag was expressed in E. coli BL21 DE3 cells. The protein was purified to homogeneity by Ni2+ affinity chromatography. Enzymatic activity was measured using a coupled spectrophotometric assay designed to monitor the reaction product adenine (Savarese, T. M., Crabtree, G. W., and Parks, R. E. Jr., (1980) Biochem. Pharmacol. 30, 189-199). Various concentrations of the indicated 5′-deoxymethylthio adenosine (MTA) or substrate were incubated in assay buffer (40 mM potassium phosphate buffer, 1 mM, and DTT 0.8 units/ml xanthine oxidase coupling enzyme) for 5 minutes at 37° C. The reaction was initiated by the addition of MTAP. The exact concentration of enzyme used varied for each substrate tested and ranged from 2 nM to 500 nM. Activity as a function of enzyme concentration was determined for each substrate tested to ensure that the appropriate enzyme concentration was used. Activity was detected by continuous monitoring of absorbance at 305 nm for 10 minutes (ΔE=15,500 M^−1).
(§2) Library compounds (10 and 50 uM) were tested using the assay described above with 2 nM MTAP enzyme. The resultant initial velocities are reported as a percentage of the initial velocity observed when MTA is the substrate. MTA controls, 10 and 50 uM concentrations, were run on each plate alongside the library compounds.

[2] = substrate: Nc1ncnc2c1ncn2[C@@H]1O[C@H](CSc2ccncc2)[C@@H](O)[C@H]1O
Procedure: as §1, §2

[3] = substrate: Nc1ncnc2c1ncn2[C@@H]1O[C@H](CNCc2ccc(F)cc2)[C@@H](O)[C@H]1O
Procedure: as §1, §2

[4] = substrate: CSC[C@H]1O[C@@H](n2cnc3c(N)ncnc32)[C@H](N=[N+]=[N-])[C@@H]1O
Procedure: as §1, §2

[5] = substrate: CSC[C@H]1O[C@@H](n2cnc3c(N)ncnc32)[C@H](O)[C@@H]1O
Procedure: as §1, §2

[6] = substrate: COc1cccc(SC[C@H]2O[C@@H](n3cnc4c(N)ncnc43)[C@H](O)[C@@H]2O)c1
Procedure: as §1, §2

[7] = substrate: CC(C)(C)SC[C@H]1O[C@@H](n2cnc3c(N)ncnc32)[C@H](O)[C@@H]1O
Procedure: as §1, §2

[8] = substrate: Nc1ncnc2c1ncn2[C@@H]1O[C@H](CNc2ccccc2)[C@@H](O)[C@H]1O
Procedure: as §1, §2

[9] = substrate: Nc1ncnc2c1ncn2[C@@H]1O[C@H](CSc2ccccn2)[C@@H](O)[C@H]1O
Procedure: as §1, §2

[10] = substrate: Nc1ncnc2c1ncn2[C@@H]1O[C@H](CCc2ccccc2)[C@@H](O)[C@H]1O
Procedure: as §1, §2

[11] = substrate: Nc1ncnc2c1ncn2[C@@H]1O[C@H](CSCc2ccccc2)[C@@H](O)[C@H]1O
Procedure: as §1, §2

[12] = substrate: CCSC[C@H]1O[C@@H](n2cnc3c(N)ncnc32)[C@H](O)[C@@H]1O
Procedure: as §1, §2

[13] = substrate: CCN(C)C(=O)[C@H]1O[C@@H](n2cnc3c(N)ncnc32)[C@H](O)[C@@H]1O
Procedure: as §1, §2

[14] = substrate: Nc1ncnc2c1ncn2[C@@H]1O[C@H](CSc2nccs2)[C@@H](O)[C@H]1O
Procedure: as §1, §2

[15] = substrate: Nc1ncnc2c1ncn2[C@@H]1O[C@H](CSCCc2ccccn2)[C@@H](O)[C@H]1O
Procedure: as §1, §2

[16] = substrate: Nc1ncnc2c1ncn2[C@@H]1O[C@H](C(=O)NCCO)[C@@H](O)[C@H]1O
Procedure: as §1, §2

[17] = substrate: Nc1ncnc2c1ncn2[C@@H]1O[C@H](CNCCO)[C@@H](O)[C@H]1O
Procedure: as §1, §2

[18] = substrate: Nc1ncnc2c1ncn2[C@@H]1O[C@H](CSCCCc2ccccc2)[C@@H](O)[C@H]1O
Procedure: as §1, §2

[19] = substrate: Nc1ncnc2c1ncn2[C@@H]1O[C@H](CSCc2ccc(F)cc2)[C@@H](O)[C@H]1O
Procedure: as §1, §2

B1: Human MTAP (Homo sapiens) (protein)
chain: MASGTTTTAVKIGIIGGTGLDDPEILEGRTEKYVDTPFGKPSDALILGKIKNVDCVLLARHGRQHTIMPSKVNYQANIWALKEEGCTHVIVTTACGSLREEIQPGDIVIIDQFIDRTTMRPQSFYDGSHSCARGVCHIPMAEPFCPKTREVLIETAKKLGLRCHSKGTMVTIEGPRFSSRAESFMFRTWGADVINMTTVPEVVLAKEAGICYASIAMATDYDCWKEHEEAVSVDRVLKTLKENANKAKSLLLTTIPQIGSTEWSETLHNLKNMAQFSVLLPRH
notes: six-histidine tag (His6) (N); made in house; host or cells: E. coli BL21 DE3
Km [1]: 25 µM | kcat [1]: 1.46 s⁻¹ | Km [2]: 0.88 µM | kcat [2]: 0.23 s⁻¹ | Km [3]: 145 µM | kcat [3]: 0.089 s⁻¹ | Km [4]: 3600 µM | kcat [4]: 0.04 s⁻¹ | Km [5]: 2.233 µM | kcat [5]: 3.97 s⁻¹ | Km [6]: 2.2 µM | kcat [6]: 1.4 s⁻¹ | Km [7]: 17 µM | kcat [7]: 0.85 s⁻¹ | Km [8]: 8.5 µM | kcat [8]: 2.02 s⁻¹ | Km [9]: 5.2 µM | kcat [9]: 3.44 s⁻¹ | Km [10]: 1.3 µM | kcat [10]: 4.6 s⁻¹ | Km [11]: 4.65 µM | kcat [11]: 2.5 s⁻¹ | Km [12]: 1.8 µM | kcat [12]: 2.9 s⁻¹ | Km [13]: 300 µM | kcat [13]: 0.8 s⁻¹ | Km [14]: 3.4 µM | kcat [14]: 2.49 s⁻¹ | Km [15]: 10.2 µM | kcat [15]: 1.01 s⁻¹ | Km [16]: 1000 µM | kcat [16]: 3 s⁻¹ | Km [17]: 758 µM | kcat [17]: 0.029 s⁻¹ | Km [18]: 2.8 µM | kcat [18]: 2.16 s⁻¹ | Km [19]: 5.4 µM | kcat [19]: 2.24 s⁻¹
